The values that follow are results of earlier work, collected in PMC8671138.

In the data set the target is CD47 (Homo sapiens) (UniProt Q08722).
Sequence of UniProt Q08722 (Q08722 19-323): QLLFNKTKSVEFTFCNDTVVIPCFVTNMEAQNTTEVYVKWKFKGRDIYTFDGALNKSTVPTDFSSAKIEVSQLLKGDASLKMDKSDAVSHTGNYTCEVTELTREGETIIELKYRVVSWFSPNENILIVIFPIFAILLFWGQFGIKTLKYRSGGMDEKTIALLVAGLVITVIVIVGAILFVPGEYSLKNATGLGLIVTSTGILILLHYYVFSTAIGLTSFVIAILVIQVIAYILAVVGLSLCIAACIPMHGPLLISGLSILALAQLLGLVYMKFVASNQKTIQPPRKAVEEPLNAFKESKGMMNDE

As to SIRPα (from UniProt P78324), the Kd (commonly the constant that tells how readily two partners part at equilibrium) was 2 µM.
